Experimental data as given in patent US20160324936.

System: GST-p21

Substance | in vitro kinase assay: 32P-labeling of GST-p21, SDS-PAGE and autoradiography
GFP-tagged kinase dead (K67M) mutant of PIM-1 (GFP-PIM-DN) | this activity was abolished in the Pim-DN construct
GFP-tagged wild-type 34 kDa human PIM-1 (GFP-PIM-wt) | Pim-wt overexpression phosphorylates p21
